Reference: PMC5811025

Columns and labels:
[1] = molecular target: PrxQ:C54S (Corynebacterium glutamicum); experiment: mixed-disulfide heterodimer formation on non-reducing SDS-PAGE; 20 μM PrxQ variant and 15 μM Trx (WT or variant) in 30 mM Tris-HCl pH 8.0, 1 mM EDTA, room temperature 15 min, then 50 μM H2O2 for 30 min; 15% non-reducing SDS-PAGE
[2] = molecular target: tag-free recombinant native peroxiredoxin Q (PrxQ) from Corynebacterium glutamicum (Corynebacterium glutamicum)

stoichiometry N [1] | Substance | other results
1 | His6-Trx1:C35S (natural protein) | –
1 | His6-Trx2:C33S (natural protein) | –
– | Trx1 WT (wild type) (natural protein) | Km for Trx1 of the peroxidase activity of PrxQ with CHP (NADPH-coupled assay, Trx1/TrxR system, 0-120 μM Trx, 1 μM PrxQ) [2]: 4.41 µM
– | Trx2 WT (wild type) (natural protein) | Km for Trx2 of the peroxidase activity of PrxQ with CHP (NADPH-coupled assay, Trx2/TrxR system, 0-120 μM Trx, 1 μM PrxQ) [2]: 5.43 µM
